Assay results published in paper PMC5489123 (Journal of molecular biology, 2010).
Each block holds one molecule with its values, some of them ahead of it. Ends that are not written are not given here. * marks the point of attachment. Dansyl = CN(C)c1cccc2c(S(=O)(=O)*)cccc12

What was measured:
[1] = molecular target: T1, Tiam1 PDZ domain (Homo sapiens, UniProt Q13009); test: NMR chemical shift titration of N-acetylated peptides; format: binding; conditions: Kd (Model)/Kd (peptide); both Kd by NMR titration
T1 sequence (Q13009 841-930): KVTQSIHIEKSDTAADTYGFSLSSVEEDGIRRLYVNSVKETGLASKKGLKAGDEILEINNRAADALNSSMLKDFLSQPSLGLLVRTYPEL

[2] = molecular target: T1, Tiam1 PDZ domain; test: Fluorescence anisotropy binding assay of dansylated peptides
[3] = molecular target: T2, Tiam1 PDZ domain (residues 841-930) (human, UniProt Q13009 841-930); test: fluorescence polarisation
T2 sequence (Q13009 841-930): as above

[4] = molecular target: T2, Tiam1 PDZ domain (residues 841-930); test: fluorescence polarisation; remark: listed apart in the source
[5] = molecular target: T2, Tiam1 PDZ domain (residues 841-930); test: NMR titration

Molecule: Ac-NKDKEYYV [Neurexin1]
- Fold versus Model [1]: 0.05
- Kd [2]: > 100 µM

- Kd [3]: 26.9 ± 0.9 µM
B1: Syndecan1 C-terminal peptide (residues 303-310), N-terminally dansylated (dan-TKQEEFYA) (peptide)
peptide: Dansyl-TKQEEFYA

- Kd [4]: > 100 µM
B2: Neurexin-1 C-terminal peptide (residues 1470-1477), N-terminally dansylated (peptide)
peptide: NKDKEYYV-OH
modifications: not fully specified (N-terminus)

- Kd [3]: 64.8 ± 5.9 µM
B3: Caspr4(F→A) peptide, dansylated (dan-ENQKEYFA) (peptide)
peptide: Dansyl-ENQKEYFA

- Kd [5]: 112 ± 15 µM
B4: Model Tiam1-binding peptide, N-terminally acetylated (Ac-SSRKEYYA) (peptide)
peptide: Ac-SSRKEYYA

- Kd [4]: > 100 µM
B5: Model Tiam1-binding peptide, N-terminally dansylated (peptide)
peptide: Dansyl-SSRKEYYA

- Kd [5]: 2400 ± 250 µM
B6: Neurexin-1 C-terminal peptide (residues 1470-1477), N-terminally acetylated (Ac-NKDKEYYV) (peptide)
peptide: Ac-NKDKEYYV

- Kd [3]: 16.8 ± 5.4 µM
B7: Caspr4 C-terminal peptide (residues 1301-1308), N-terminally dansylated (dan-ENQKEYFF) (peptide)
peptide: Dansyl-ENQKEYFF

- Kd [3]: 55.7 ± 3.6 µM
B8: Syndecan1(A→F) peptide, dansylated (dan-TKQEEFYF) (peptide)
peptide: Dansyl-TKQEEFYF
